Experimental data reported in patent US20220031813A1, “INHIBITOR OF EXTRACELLULAR TRAP FORMATION IN LEUKOCYTES” (priority 2013, published 2022).

B1: human lactoferrin: human lactoferrin, Cat No. SIGL6793, SIGMA; called human neutrophil-derived lactoferrin (protein, UniProt P02788 20-710, looked up)
Lactotransferrin: GRRRSVQWCAVSQPEATKCFQWQRNMRKVRGPPVSCIKRDSPIQCIQAIAENRADAVTLDGGFIYEAGLAPYKLRPVAAEVYGTERQPRTHYYAVAVVKKGGSFQLNELQGLKSCHTGLRRTAGWNVPIGTLRPFLNWTGPPEPIEAAVARFFSASCVPGADKGQFPNLCRLCAGTGENKCAFSSQEPYFSYSGAFKCLRDGAGDVAFIRESTVFEDLSDEAERDEYELLCPDNTRKPVDKFKDCHLARVPSHAVVARSVNGKEDAIWNLLRQAQEKFGKDKSPKFQLFGSPSGQKDLLFKDSAIGFSRVPPRIDSGLYLGSGYFTAIQNLRKSEEEVAARRARVVWCAVGEQELRKCNQWSGLSEGSVTCSSASTTEDCIALVLKGEADAMSLDGGYVYTAGKCGLVPVLAENYKSQQSSDPDPNCVDRPVEGYLAVAVVRRSDTSLTWNSVKGKKSCHTAVDRTAGWNIPMGLLFNQTGSCKFDEYFSQSCAPGSDPRSNLCALCIGDEQGENKCVPNSNERYYGYTGAFRCLAENAGDVAFVKDVTVLQNTDGNNNEAWAKDLKLADFALLCLDGKRKPVTEARSCHLAMAPNHAVVSRMDKVERLKQVLLHQQAKFGRNGSDCPDKFCLFQSETKNLLFNDNTECLARLHGKTTYEKYLGPQYVAGITNLKKCSTSPLLEACEFLRK
B2: angiogenin: bovine milk protein, known as a tumor angiogenesis factor, eluted from SP-Sepharose column (protein, UniProt P10152 24-148, looked up)
Angiogenin-1: AQDDYRYIHFLTQHYDAKPKGRNDEYCFNMMKNRRLTRPCKDRNTFIHGNKNDIKAICEDRNGQPYRGDLRISKSEFQITICKHKGGSSRPPCRYGATEDSRVIVVGCENGLPVHFDESFITPRH

Experiments:
[1] = system: human neutrophils; assay: Rate of NETs formation in PMA-stimulated neutrophils after pre-treatment, counted by confocal microscopy; format: cell-based
[2] = system: human neutrophils; assay: Scanning electron microscopy of neutrophils stimulated to form NETs; format: cell-based; settings: pre-treatment 200 μg/ml, 3 hours after stimulation
Protocol: The observation by a scanning electron microscope was performed as follows. Eosinophil granulocytes were seeded on a glass cover or a glass bottom dish for cell culture in the number of 1×10^6 and pre-treated with 200 μg/ml of human lactoferrin or were not pre-treated before stimulation for NETs. Three hours later, the sample was pre-immobilized with 0.1 M phosphoric acid buffer (pH: 7.4) containing 2% glutaraldehyde at 4° C. for 1 hour. Next, the sample was post-immobilized with 0.1 M phosphoric acid buffer (pH: 7.4) containing 1% osmium tetroxide at 4° C. for 1 hour. After the immobilization, the sample was washed with 60% ethanol, with 70% ethanol, with 80% ethanol and with 95% ethanol while being gently shaken for 5 to 10 minutes, and immersed twice in 100% ethanol for 5 to 10 minutes to be dehydrated. Critical point drying was performed by substitution with isoamyl acetate for 10 to 15 minutes. The sample were covered with a layer of sublimated osmium tetroxide by use of an osmium plasma coating device (OPC80N, Filgen, Inc.) and observed by a scanning electron microscope (JSM-6320F, JEOL, Ltd.). In the case where the neutrophils were not stimulated, the neutrophils were kept spherical and no extracellular fiber was recognized. In the case where the neutrophils were stimulated with PMA, the cells were broken and many fiber components were formed.

[3] = system: human neutrophils; assay: DNA concentration in the culture supernatant (Picogreen) after pre-treatment; format: cell-based; settings: pre-treatment 2, 20, 200 μg/ml, 3 hours after stimulation; FIG. 1-D
[4] = system: human neutrophils; assay: DNA concentration in the culture supernatant, lactoferrin added after PMA stimulation; format: cell-based; settings: p<0.001
Protocol: From heathy volunteer, 15 ml to 20 ml of peripheral blood was sampled for one cycle of experiment with an EDTA-containing syringe (needle: 18 to 22 G). After the blood sampling, 3 ml of mono-poly resolving medium (Cat No. DSBN100, DS Pharma Biomedical Co., Ltd.) contained in 15 ml conical tube, and then 3.5 ml of the whole blood were gently stacked in the lower-layer mono-poly resolving medium. The 15 ml conical tube was centrifuged at room temperature (15 to 30° C.) at 400×g for 20 minutes by a swing-type centrifuge, and then the conical tube was taken out gently. A brown plasma layer in the top layer and a lymphocyte/monocyte layer immediately below the brown plasma layer were removed by an aspirator or the like. A transparent layer below the lymphocyte/monocyte layer was removed as much as possible. A pale pink layer below the transparent layer was taken out by a Pasteur pipette. […]
(§1) The culture supernatant was recovered and centrifuged at 200×g for 10 minutes, and the supernatant was transferred to a new microscopic centrifuge tube. The DNA amount was measured by use of Picogreen dsDNA assay reagent (P11496 Invitrogen) in accordance with an accompanying protocol. […]

[5] = system: human neutrophils; assay: Specificity experiment: inhibition of NETs formation by DNA concentration in the culture supernatant; format: cell-based; settings: n=3, p<0.01, FIG. 10
Protocol: About 1 hour after the isolation of the neutrophils described in “1. Method of isolating human neutrophils” in Example 2, the neutrophils were pre-treated. On an 8-well microslide (Cat. No. ib 80826 Ibidi (registered trademark)), the neutrophils were seeded in 400 μl of culture DMEM+2% human serum Alb (serum human albumin; Product No. A9080 Sigma+4 mM L-glutamine) at a rate of about 1.0×10^5 cells/well, and stimulated with PMA (final concentration: 25 nM, stock: 10 mM in DMSO, Sigma Prod No. P8139). At thirty minutes before the stimulation, and at every one hour or every two hours after the stimulation, 200 μg/ml of human lactoferrin (stock: 100 mg/ml, 200 μl; Cat. No. SIGL6793, SIGMA) was added to perform inhibition [FIG. 2].
as §1, with “protocol. Treatment with human lactoferrin at one hour and two hours after the stimulation was a similar effect to the prior pre-treatment, the DNA concentration in the culture supernatant decreased, resulting in suppression of the release of the DNAs by the NETs [FIG. 2].” for “protocol.”

[6] = bovine proteins; cited from earlier work

Molecule | rate of the NETs formed at plateau, compared with stimulation merely with PMA ([1]; pre-treatment 2 μg/ml for 30 minutes, then PMA 25 nM) | rate of the NETs formed at plateau, compared with stimulation merely with PMA ([1]; pre-treatment 20 μg/ml for 30 minutes, then PMA 25 nM) | formation of the NETs at plateau, compared with stimulation merely with PMA ([1]; pre-treatment 200 μg/ml for 30 minutes, then PMA 25 nM) | release of the DNAs to the outside of the cells (SYTOX green images) ([1]; pre-treatment 200 μg/ml, FIG. 1-C) | inhibitory effect on the formation of the NETs ([1]; pre-treatment with 2, 20 or 200 μg/ml, FIG. 1-A, 1-B) | fiber components of the NETs by scanning electron microscope [2] | DNA concentration in the culture supernatant [3] | DNA concentration in the culture supernatant ([4]; 200 μg/ml added one hour after PMA stimulation) | DNA concentration in the culture supernatant ([4]; 200 μg/ml added two hours after PMA stimulation) | inhibition of the formation of the NETs [5] | Isoelectric point [6]
B1 | half | half | ¼ | inhibited | observed similarly to the bovine lactoferrin | form such fiber components in bundles | decreased in a concentration-dependent manner | decreased | decreased |  | 
B2 |  |  |  |  |  |  |  |  |  | Neither lactoperoxidase nor angiogenin inhibited | 9.5
